Assay results as given in US20240182928, “NOVEL CRISPR ENZYMES AND SYSTEMS” (The Broad Institute, Inc., published 2024).

Molecular target: T1, LshC2c2 (Cas13a) wild type (Leptotrichia shahii, UniProt P0DOC6 SEQ:1-1389)
T1 sequence: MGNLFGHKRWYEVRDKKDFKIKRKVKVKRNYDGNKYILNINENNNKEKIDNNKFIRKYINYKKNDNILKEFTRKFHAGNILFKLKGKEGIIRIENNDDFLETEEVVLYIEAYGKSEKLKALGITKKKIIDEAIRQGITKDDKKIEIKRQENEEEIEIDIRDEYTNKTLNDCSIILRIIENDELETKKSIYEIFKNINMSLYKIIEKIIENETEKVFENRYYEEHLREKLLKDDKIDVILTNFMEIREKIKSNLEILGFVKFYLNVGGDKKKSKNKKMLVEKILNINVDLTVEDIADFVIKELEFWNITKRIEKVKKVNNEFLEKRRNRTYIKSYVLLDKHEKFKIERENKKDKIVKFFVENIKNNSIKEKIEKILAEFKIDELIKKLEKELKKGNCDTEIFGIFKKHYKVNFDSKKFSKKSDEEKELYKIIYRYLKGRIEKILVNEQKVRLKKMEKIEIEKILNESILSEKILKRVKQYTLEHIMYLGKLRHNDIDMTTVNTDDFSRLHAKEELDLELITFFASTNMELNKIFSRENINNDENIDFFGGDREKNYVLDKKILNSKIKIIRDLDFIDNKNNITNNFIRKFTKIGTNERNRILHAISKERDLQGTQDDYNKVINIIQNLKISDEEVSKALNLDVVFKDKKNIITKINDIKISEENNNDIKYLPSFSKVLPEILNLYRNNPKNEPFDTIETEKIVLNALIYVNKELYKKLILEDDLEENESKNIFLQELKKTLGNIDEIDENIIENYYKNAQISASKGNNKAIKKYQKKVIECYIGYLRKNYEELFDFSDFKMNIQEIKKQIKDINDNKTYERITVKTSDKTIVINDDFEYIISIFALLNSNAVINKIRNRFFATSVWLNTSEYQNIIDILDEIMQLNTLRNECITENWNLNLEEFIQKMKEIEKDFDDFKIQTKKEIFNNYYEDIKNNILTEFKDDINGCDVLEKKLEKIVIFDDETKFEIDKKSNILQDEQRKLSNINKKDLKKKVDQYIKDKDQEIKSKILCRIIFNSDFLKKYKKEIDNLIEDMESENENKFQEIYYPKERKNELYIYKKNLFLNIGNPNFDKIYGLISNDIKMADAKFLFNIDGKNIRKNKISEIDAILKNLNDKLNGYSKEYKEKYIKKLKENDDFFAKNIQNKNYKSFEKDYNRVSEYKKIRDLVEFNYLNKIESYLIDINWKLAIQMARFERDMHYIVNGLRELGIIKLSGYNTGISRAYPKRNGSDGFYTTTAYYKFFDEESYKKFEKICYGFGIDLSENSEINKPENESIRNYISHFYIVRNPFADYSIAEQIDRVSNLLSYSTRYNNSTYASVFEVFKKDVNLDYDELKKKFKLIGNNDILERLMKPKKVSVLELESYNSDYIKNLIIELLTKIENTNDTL
Assay: EMSA; non-target reverse complement
Conditions: tags: expressed as 6-His-MBP-TEV fusion, TEV-cleaved; direct repeat stem-loop
Text: FIG. 119D Electrophoretic mobility shift assay (EMSA) evaluating affinity of the wild type LshC2c2-crRNA complex against a targeted (left) and a non-targeted (right) ssRNA substrate. The non-targeted ssRNA substrate is the reverse-complement of the targeted ssRNA. EDTA is supplemented to reaction condition to reduce any cleavage activity. FIG. 119E Electrophoretic mobility shift assay with LshC2c2(R1278A)-crRNA complex against on-target ssRNA and non-targeting complementary ssRNA (same substrate sequences as in D). FIG. 119B discloses SEQ ID NOS: 2090-2091, respectively, in order of appearance.
To determine if target binding and cleavage activity of LshC2c2 are likewise separable, electrophoretic mobility shift assays (EMSA) were performed on both the wild-type (FIG. 119D) and R1278A mutant LshC2c2 (FIG. 119E) in complex with crRNA.

B1: crRNA 14 ; ssRNA 10 (rc) (ssRNA ; ssRNA)
RNA 1: CCACCCCAAUAUCGAAGGGGACUAAAACUAGAUUGCUGUUCUACCAAGUAAUCCAU
RNA 2: CUUUAUGCUUCCGGCGUAGAUUGCUGUUCUACCAAGUAAUCCAUAUUCGAGCUCGAAUUCACUGGCCUAU
Does B1 bind?
Result: no binding
